Test results taken from patent US20240352133A1.
Residue numbers refer to the chain shown, from its start.

B1: VRDN-03038 (antibody, V domains shown)
VH: QVELVESGGGVVQPGRSQRLSCAASGFTFSSYGMHWVRQAPGKGLEWVAIIWFDGSSTYYADSVRGRFTISRDNSKNTLYLQMNSLRAEDTAVYFCARELGRRYFDLWGRGTLVSVSS
VL: EIVLTQSPATLSLSPGERATLSCHASQSVSSYLAWYQQKPGQAPRLLIYDASKRATGIPARFSGSGSGTDFTLTISSLEPEDFAVYYCQQRSKWPPWTFGQGTKVESK
B2: VRDN-03042 (antibody, V domains shown)
VH: B1 VH
VL: B1 VL with H24R, S28H
B3: VRDN-03091 (antibody, V domains shown)
VH: B1 VH with E3Q, Q18L, F95Y, S115T
VL: EIVLTQSPATLSLSPGERATLSCGASQSVSSSYLAWYQQKPGQAPRLLIYDASKRATGIPARFSGSGSGTDFTLTISSLEPEDFAVYYCQQRSKWPPWTFGQGTKVEIK
B4: VRDN-03044 (antibody, V domains shown)
VH: B1 VH
VL: B1 VL with H24R, S30H
B5: VRDN-03039 (antibody, V domains shown)
VH: B1 VH
VL: B1 VL with H24R, A25H
B6: VRDN-03045 (antibody, V domains shown)
VH: B1 VH
VL: B1 VL with H24R, S31H
B7: VRDN-03046 (antibody, V domains shown)
VH: B1 VH
VL: B1 VL with H24R, Y32H
B8: VRDN-03043 (antibody, V domains shown)
VH: B1 VH
VL: B1 VL with H24R, V29H
B9: VRDN-03089 (antibody, V domains shown)
VH: B1 VH with E3Q, Q18L, F95Y, S115T
VL: B3 VL with G24R
B10: VRDN-03041 (antibody, V domains shown)
VH: B1 VH
VL: B1 VL with H24R, Q27H
B11: VRDN-03118 (antibody, V domains shown)
VH: EVQLVESGGGVVQPGRSLRLSCAASGFTFSSYSMHWVRQAPGKGLEWVAIIWFDGSSKYYVDSVKSRFTISRDNSKNTLYLQMNSLRAEDTAVYYCARELGRRYFDIWGQGTLVTVSS
VL: EIVMTQSPATLSVSPGERATLSCRASQGVSSYLAWYQQKPGQAPRLLIYGASTRATGIPARFSGSGSGTEFTLTISSLQSEDFAVYYCQQRSRWPPWTFGQGTKLEIK
B12: VRDN-03128 (antibody, V domains shown)
VH: B11 VH with S31D, S33T, V61P, D62G, S66G, Q110R
VL: B11 VL with Y32N, Q101G
B13: VRDN-03136 (antibody, V domains shown)
VH: B11 VH with S30D, S31D, S33T, V61A, S66G
VL: B11 VL with Y32N, Q101G
B14: VRDN-03135 (antibody, V domains shown)
VH: B11 VH with S30D, S31D, S33A, V61A, S66G
VL: B11 VL with Y32N, Q101G
B15: VRDN-03121 (antibody, V domains shown)
VH: B11 VH with I50V, F53Y, V61A, Q110R
VL: B11 VL
B16: VRDN-03132 (antibody, V domains shown)
VH: B11 VH with I50V, F53Y, V61A, S66G
VL: B11 VL with Y32N, Q101G
B17: VRDN-03131 (antibody, V domains shown)
VH: B11 VH with S57E
VL: B11 VL with Y32N, Q101G
B18: VRDN-03139 (antibody, V domains shown)
VH: B11 VH with S31D, S33T, V61A
VL: B11 VL with Y32N, Q101G
B19: VRDN-03123 (antibody, V domains shown)
VH: B11 VH with S30D, S31D, S33A, V61A, S66G
VL: B11 VL
B20: VRDN-03134 (antibody, V domains shown)
VH: B11 VH with I50V, F53Y, V61A
VL: B11 VL with Y32N, Q101G
B21: VRDN-03116 (antibody, V domains shown)
VH: B11 VH with S31D, S33T, V61P, D62G, S66G, Q110R
VL: B11 VL
B22: VRDN-03120 (antibody, V domains shown)
VH: B11 VH with I50V, F53Y, V61A, S66G
VL: B11 VL
B23: VRDN-03126 (antibody, V domains shown)
VH: B11 VH with S30D, S31D, S33T, I50V, F53Y, V61A, S66G
VL: B11 VL
B24: VRDN-03125 (antibody, V domains shown)
VH: B11 VH with S30D, S31D, S33A, I50V, F53Y, V61A, S66G
VL: B11 VL
B25: VRDN-03124 (antibody, V domains shown)
VH: B11 VH with S30D, S31D, S33T, V61A, S66G
VL: B11 VL
B26: VRDN-03130 (antibody, V domains shown)
VH: B11 VH
VL: B11 VL with Y32N, Q101G
B27: VRDN-03119 (antibody, V domains shown)
VH: B11 VH with S57E
VL: B11 VL
B28: VRDN-03138 (antibody, V domains shown)
VH: B11 VH with S30D, S31D, S33T, I50V, F53Y, V61A, S66G
VL: B11 VL with Y32N, Q101G
B29: VRDN-03129 (antibody, V domains shown)
VH: B11 VH with S57N, V61A
VL: B11 VL with Y32N, Q101G
B30: VRDN-03127 (antibody, V domains shown)
VH: B11 VH with S31D, S33T, V61A
VL: B11 VL
B31: VRDN-03122 (antibody, V domains shown)
VH: B11 VH with I50V, F53Y, V61A
VL: B11 VL
B32: VRDN-03133 (antibody, V domains shown)
VH: B11 VH with I50V, F53Y, V61A, Q110R
VL: B11 VL with Y32N, Q101G
B33: VRDN-03117 (antibody, V domains shown)
VH: B11 VH with S57N, V61A
VL: B11 VL
B34: VRDN-03137 (antibody, V domains shown)
VH: B11 VH with S30D, S31D, S33A, I50V, F53Y, V61A, S66G
VL: B11 VL with Y32N, Q101G
B35: VRDN-03115 (antibody, V domains shown)
VH: B11 VH with E1Q, S31D, Y32H, S33Y, H35D, V61P, D62G, S66G, Q110R
VL: B11 VL

biological target: Recombinant human his-tagged IGF 1R extracellular domain protein (human) (UniProt P08069); experiment: SPR, captured antibody, pH 7.4

Row | Kd [nM] | koff [s⁻¹] | kon [M⁻¹ s⁻¹] | Binder
1 | 1.72 | 0.000167 | 96900 | B1
2 | 1.53 | 0.000172 | 112000 | B2
3 | 11 | 0.00902 | 819000 | B3
4 | 1.96 | 0.000192 | 98400 | B4
5 | 11.3 | 0.00332 | 294000 | B5
6 | 1.29 | 0.000135 | 105000 | B6
7 | 1.58 | 0.000162 | 103000 | B7
8 | 22.4 | 0.0111 | 493000 | B8
9 | 236 | 0.0173 | 73300 | B9
10 | 3.16 | 0.0003 | 94900 | B10
11 | 1.08 | 0.000107 | 98600 | B11
12 | 7.3 | 0.00241 | 331000 | B12
13 | 2.84 | 0.000253 | 89100 | B13
14 | 4.06 | 0.000414 | 102000 | B14
15 | 4.27 | 0.000486 | 114000 | B15
16 | 10.1 | 0.004 | 395000 | B16
17 | 16.2 | 0.00141 | 86900 | B17

Row | Kd [nM] | koff [s⁻¹] | kon [M⁻¹ s⁻¹] | Binder
18 | 2.46 | 0.000262 | 107000 | B18
19 | 1.43 | 9.19e-05 | 64200 | B19
20 | 4.89 | 0.0012 | 245000 | B20
21 | 4.3 | 0.00091 | 212000 | B21
22 | 3.96 | 0.00128 | 322000 | B22
23 | 8.7 | 0.00297 | 341000 | B23
24 | 8.61 | 0.00292 | 339000 | B24
25 | 1.84 | 0.000157 | 85200 | B25
26 | 2.72 | 0.000275 | 101000 | B26
27 | 9.78 | 0.00153 | 157000 | B27
28 | 8.75 | 0.00433 | 495000 | B28
29 | 11 | 0.00709 | 646000 | B29
30 | 0.573 | 7.48e-05 | 131000 | B30
31 | 4.09 | 0.000455 | 111000 | B31
32 | 6.51 | 0.00228 | 350000 | B32
33 | 8.1 | 0.00391 | 483000 | B33
34 | 15.1 | 0.0142 | 940000 | B34

biological target: Recombinant human his-tagged IGF 1R extracellular domain protein (human) (UniProt P08069); experiment: SPR, captured antibody, dissociation at pH 6

Row | Kd [nM] | koff [s⁻¹] | kon [M⁻¹ s⁻¹] | Binder
35 | 1.4 | 0.000115 | 82000 | B1
36 | 1.2 | 9.44e-05 | 78400 | B2
37 | 3.79 | 0.000217 | 57300 | B4
38 | 14.3 | 0.00563 | 394000 | B5
39 | 0.624 | 5.02e-05 | 80500 | B6
40 | 1.87 | 0.000159 | 84800 | B7
41 | 18.2 | 0.0253 | 1.39e+06 | B8
42 | 0.556 | 3.61e-05 | 65000 | B10
43 | 1.21 | 0.000297 | 246000 | B35
